These results are taken from the DeepSol protein solubility set.

The data set is described as follows: soluble on expression in E. coli; label from the status in PepcDB or PDB records.
Take “VTPQYQATSTIYVLGNSVSMSGVDLTLSKQLTADFSVLAKSRPVMNKIEEKLKADYKYKDLNYSVEQLQGMITIENPSGTSLMRMTATNSDAQLAADIANAAADAVAERISEVMVIDKPSSVEEAEKPNYPVSPNVKKNM”: the “soluble on expression in E. coli” value is “not soluble”. In the case of “MGSDKIHHHHHHMTTSSVRYPQRVRNELRFRELIVLRVERISAGFQRIVLGGEALDGFISLGFDDHTKVFFPEPGCRFTPPTVTEEGIIWGEGVRPVSRDYTPLYDEARRELALDFFIHDGGVASRWAMEAREGDTLTIGGPRGSLVVPEEYACQVYVCDESGMPALRRRLESLSRLPVRPAVTALVSIQDAAYRDYLAHLTDITVEYVVGGDEQAMQTRLSQLTIPESDYFIWITGEGKTVKRLSQCFEKGFDPHLVRAAAYWHRK” it was “not soluble”.

Consider “MSLDFSEPLLGFEPRDTEIGRRLEVWKAMQALTGPKNLLSLSPDPEMNSSSLLSTLSPAAWGRAEESVVRTKRMVGPVEVKEEENFFCGRPEKSHAKLVFVSTSGGSLWNLQAIHSMCRIEQEQIRSHISFGALCQRSAANECCPSWSLGNYLAVLSNRSSCQDTTQADTDRTLALLRFCATFYHRGVLVPACVGSSQDKPPFCAQVPAKCTGSNVVYEFLHYLLDRDFLSPQTADYQVPSLKFALLFLPIIKTSSLLDIYLDGLGDPIKVSDNYTSISGMDLGLKPRLLKYYLAEDTEGHHHHHH”, for which the “soluble on expression in E. coli” value is recorded as “not soluble”.

Consider “MMKPPSAIMETALYADDLDAAEAFYRDVFGLEMVLKLPGQLVFFKCGRQMLLLFDPQESSRADANNPIPRHGAVGQGHFCFYADDKAEVDEWKTRFEALEIPVEHYHRWPNGSYSVYIRDPAGNSVEVGEGKLWGFE”, for which the “soluble on expression in E. coli” value is listed as “not soluble”. On to “MSANDFKPETWTSSANEALRVSIVGENAVQFSPLFTYPIYGDSEKIYGYKDLIIHLAFDSVTFKPYVNVKYSAKLGDDNIVDVEKKLLSFLPKDDVIVRDEAKWVDCFAEERKTHNLSDVFEKVSEYSLNGEEFVVYKSSLVDDFARRMHRRVQIFSLLFIEAANYIDETDPSWQIYWLLNKKTKELIGFVTTYKYWHYLGAKSFDEDIDKKFRAKISQFLIFPPYQNKGHGSCLYEAIIQSWLEDKSITEITVEDPNEAFDDLRDRNDIQRLRKLGYDAVFQKHSDLSDEFLESSRKSLKLEERQFNRLVEMLLLLNNS”, for which the “soluble on expression in E. coli” value was “soluble”. Next, “MSVINCEEVKRDEFHTEKYYESYNIFGAHIVTEDEMRGVRFTVWAPHAKAMSVVGDFNEWDYEQHKMLQVTEEGIWSLFIPHIEEREIYKYAIETMAGDVIFKADPYAVYAEVRPNTASVVFDIKGYEWNDKNWSRKKKKKSVYKEAMTVYELHFGSWKKKEDGTLYSYREMAEELIPYVVEHQFTHIEIMPLVEHPYDRSWGYQGTGYYAATSRFGTPHDLMHFVDECHKYGIGVILDWVPGHFCKDAHGLYLFDGTPTYEYKDKDVQENPVWGTVNFDLGKREVRNFLISNALFWMRYFHIDGFRVDAVANMLYWNKEGQEQSNEHAVSFLRELNEAVFAEDEDFLMTAEDSTAWPLVTAPTYEGGLGFNYKWNMGWMNDVLKYMECAPEYRKYIHDKMTFSLLYAYSENFILPLSHDEVVHGKKSLLNKMPGDYWDKFAQLRLLYGYFFTHPGKKLLFMGGEFGQFDEWKDLEDLDWNLHDFEMHRYMHDYFKELIALYKRSKPLWQLDHSREGFQWIDANNNEQSIFSFIRQGDKQEDALVVVCNFTKATYENYKVGVPDFEYYNEVLNSDAEQYGGSGQVNKKRLKTFQEPYHNQTAHVEITIPPFGVSILRPVKTRKGSKKQDGSKTKVRSNVTSRGKR”: “not soluble”; “MSQMAQSLRSQFATDKQVLQKFLNLDQKGMYQALYIWIDGSGENIRAKTRTFDFEPTDPEKLPIWNFDGSSTGQAEGADSDVYLKPVAIYPDPFRQGKNKLVMCETYDNKKKPTATNYRQRCKEVMEKAADQHPWFGMEQEYTLLDIDGHPFGWPKNGFPGPQGPYYCGVGANKVYGRDIVEAHYRACLYAGIQISGTNAEVMPGQWEFQVGPCEGIQMGDQLWVARYLLQRVAEEFGVIASFDCKPIKGDWNGAGCHTNFSTDKMRNPGGIDEIMSAINKLSLVHPQHIAYYDPHGGKDNERRLTGLHETASIDKFSYGVASRASSIRIPRSTDDDGYGYFEDRRPSSNCDPYTVTGALVRTVCLEGAERKLSMMYVPSQAPNITKH”: “not soluble”.

Regarding “NNSQFFMGIPRLKFPADAPSRSTLKLEEAFHVFIPRDEWDERLAPGMWGVDLGACPGGWTYQLVKRSMFVHCVDNGMMADSLMETGQIKHHMVDGFKFEPDRKNVTWIVCDMVEKPARVAHLMGQWLLKGWAKEAIFNLKLPMKGRYDEVLQDLENLKMFLIENKVKFKLQAKHLYHDREEITIHIQCLSNISPH”, the “soluble on expression in E. coli” value is reported as “not soluble”. Next, “MRYSFVIQWDFETVYTGVNSTTNLAFSVKAMTTNFANLQELQDSLVLRGQNLTTQLFWKPTVKRLVLGNNNDLTTVAKAAVGDNLFTTQANLTKSVLDQTVLKEAESRFEATVLKPFIEARQKALAEHQAHQKVLEEQRQKQLEELKQKQKEAE”: “soluble”; “MGSDKIHHHHHHMPYNATVLRIMIASPSDVAKERNIIRNIIYEWNTINSIDRKIVLDPVGWETHAHPDMSGRAQSIINKQILKDCDLLVAVFWTRLGTPTGKFISGTVEEIEEHLKSGKQAMIYFSRAPVYLESVDQDQYKALCDFRSLCQQKGLIETYESLEEFQHKFSRQISQKIIQNYSSLESTNNTLEVSFAPELPRLSDLGKDLLIEVASDSNGELICLPVMGGLMIETNNKQLADMGNARSEASWKSAISELIKYELMESLGGKGEVYRLTEKGYQVADHLGAP”: “not soluble”; “SATLLHDAVMNPAEVVKQRLQMYNSQHQSAFSCIRTVWRTEGLGAFYRSYTTQLTMNIPFQSIHFITYEFLQEQVNPRRDYNPQSHIISGGLAGALAAAATTPLDVCKTLLNTQENMALSLANVSGRLSGMANAFRTVYQLNGLAGYFKGIQARVIYQMPSTAISWSVYEFFKYILTKRQLENRTLY”: “soluble”. Next, “TKDLPIHACSYCGIHDPACVVYCNTSKKWFCNGRGNTSGSHIVNHLVRAKCKEVTLHKDGPLGETVLECYNCGCRNVFLLGFIPAKADSVVVLLCRQPCASQSSLKDINWDSSQWQPLIQDRCFLSWLVKIPSEQEQLRARQITAQQINKLEELWKENPSATLEDLEKPGVDEEPQHVLLRYEDAYQYQNIFGPLVKLEADYDKKLKESQTQDNITVRWDLGLNKKRIAYFTLPKTDSDMRLMQGDEICLRYKGDLAPLWKGIGHVIKVPDNYGDEIAIELRSSVGAPVEVTHNFQVDFVWKSTSFDRMQSALKTFAVDETSVSGYIYHKLLGHEVEDVIIKCQLPKRFTAQGLPDLNHSQVYAVKTVLQRPLSLIQGPPGTGKTVTSATIVYHLARQGNGPVLVCAPSNIAVDQLTEKIHQTGLKVVRLCAKSREAIDSPVSFLALHNQIRNMDSMPELQKLQQLKDETGELSSADEKRYRALKRTAERELLMNADVICCTCVGAGDPRLAKMQFRSILIDESTQATEPECMVPVVLGAKQLILVGDHCQLGPVVMCKKAAKAGLSQSLFERLVVLGIRPIRLQVQYRMHPALSAFPSNIFYEGSLQNGVTAADRVKKGFDFQWPQPDKPMFFYVTQGQEEIASSGTSYLNRTEAANVEKITTKLLKAGAKPDQIGIITPYEGQRSYLVQYMQFSGSLHTKLYQEVEIASVDAFQGREKDFIILSCVRANEHQGIGFLNDPRRLNVALTRARYGVIIVGNPKALSKQPLWNHLLNYYKEQKVLVEGPLNNLRESLMQFS”: “soluble”.

“MQSHTFTRSRGVPIYMNGSVSHQRLYDRLSEPSTSRQLPRSISLAPTGHHRTGSTRIDREQVDTSLPVTYIPRFHDESAVRRMNYRQIPGTDIRMSKIGFGAAAIGGMFGNVEDSIIKIVETAIKQGINYIDTGYWYSQSRSESILGKALSKIPRKAYYISTKVGRFELDYARTFDFRADKILESLTNSLKRLQLTYIDICYVQIHDADFAPNESIVLYETLQALEMAKSSGKIRHIGLTGYPLGKLVYSFRYVWNAPKLYFSVNLSITRNIAVINSGALCWGLLTEKGPPPWHPASDEIKEACLAATTYCSSKNISISKLALDYALNFPNVICCLVGMDSVQQVLDNLELSNFSRITDVEQRVRDRIMRRYLDRLENAGWEGVDVAQYWKKLKKLGLTALATHRHSSVESLASTLNGFSLYSSNSSSELRTPRRRRPF”: the “soluble on expression in E. coli” value is “not soluble”. Next, “MPAAPLCSPFPSPPPSFHTASLPFSIHAHHSPLPCDLDPPLYLAETVSLLEEWGPPSSCPMQCKLTSHPARLTHLPPCLWGFAVALKPSWAGLAPSLLPPPRMSLCRPLSFLRHQCPWLPWQAHQGLVPWSPSMVAAACIVSPSGHCRCQPFIPHVFLGHGGLTSVSGECG”: “soluble”; “MKETRDLETLSVNAIRFLAIDAVEKARSGHPGMPMGMAPLAYLLFREVMRHNPLDPDWPDRDRFVLSAGHGSMLLYAVLHLTGYDLPLEELKSFRQWGSKTPGHPERGHTPGVEVTTGPLGQGISTAVGLALAERKLAAEFNRPGHVVVDHYTYVLASDGDLMEGVSGEAASLAGHWGLSKLIVFWDDNRISIDGPTDLAFTEDVLARYRAYGWQTLRVEDVNDLEALRKAIKLAKLDERPTLIAVRSHIGFGSPKQDSAKAHGEPLGPEAVEATRRNLGWPYPPFVVPEEVYRHMDMREKGRAWQEAWEKALEAYARAYPDLHQELMRRLRGELPPLPEEPPSFDKPIATRAASGRALNLLAPRLPELLGGSADLTPSNNTKAEGMEDFSRANPLGRYLHFGVREHAMGAILNGLNLHGGYRAYGGTFLVFSDYMRPAIRLAALMGVPTVFVFTHDSIALGEDGPTHQPVEHLMSLRAMPNLFVIRPADAYETFYAWLVALRRKEGPTALVLTRQAVPLLSPEKARGLLRGGYVLEDVEEPQGVLVATGSEVHLALRAQALLREKGVRVRVVSLPSFELFAAQPEAYRKEVLPPGLPVVAVEAGASLGWERYAHKVVALDRFGASAPYPEVYERLGFTPERVAEAFLSLV”: “soluble”. Next, “MSYSPSLKEIIAILQKYTSKNYQSNCKTRPDGKLELSLNGVFEEIVKTPGKTRYVTHKQLDQKLKDFKQDLMVELHDTFATKTDLKESEARINQKLEALIQIVMVQGEQIKVHGEQINKLTQAVEKQGEKIEAQGQQIQKVNETLNFVVESLGSIHKRLDSMEGRLDSMENRLDKLESK”: “soluble”. In the case of “MGSDKIHHHHHHMRHTAVLLISCPDQRGLVAAIADFLLAHRANILHADQHQDAELKLFLMRVEWDLAGFNLDLRDFATAFQPIAERFGMTWRLAESSRKPRMAVFVSKFDHCLADLLYRYQSGELHCELPIILSNHEDTRWLADAYRVPYQHMAVTKESKHETEQIQLAILRDQKIDFIVLARYMQVLSGDFIRHFPNRIINIHHSFLPAFHGAKPYHRAFERGVKLIGATAHYVTETLDDGPIIEQDVARISHRDHIDDLIHKGADLEKVVLSRAVKWHLDNRVLVYANKTVVFD” it was “not soluble”. On to “MTPISGRCEMAEVTNIPNPGHTSSWYAASANVKSVRPTLEGALEADVCIIGGGFTGISAALELSERGYAVIVLEGVRVGFGASGRNGGQIVNGYSRDLETIARRYGHEKAVKLGEMSLEGGTIIRSRVAKYGIDCDLVDGGFFAAFTPKQIREMEAHKAHWEKHGHGGLEMVSEADVGQYVKTNRYAGGMIDRFGGHIHPLNLVQGEAAAAESLGARIFENSRVIAVEQGANPIVRTAMGSVKAKYVLVCGNAYLGTLLPEIGERMMPVSSQVMATEPLDADLIEALLPANYCVEDANYILDYYRRTSDNRLLYGGGIGYGGSDPADLTGVIRPNMLKTFPQLEKTKIEFAWSGNFALTLTRIPHMGRLSDNIYFSHGDSGHGVTTTHLLGKILGEAVAGHAERFDIWSSLPNYPFPGGKTFRVPLTMLGAWWYGLRDKLGLLEHHHHHH”, for which the “soluble on expression in E. coli” value is “not soluble”.
